Format: biochemical
Conditions: acetoacetyl-CoA and NADPH both at 100 μM

B1: MabA-wt: wild-type protein MabA of Mycobacterium tuberculosis, SEQ ID NO: 1 (protein, listed as Mycobacterium tuberculosis)
chain: MTATATEGAKPPFVSRSVLVTGGNRGIGLAIAQRLAADGHKVAVTHRGSGAPKGLFGVECDVTDSDAVDRAFTAVEEHQGPVEVLVSNAGLSADAFLMRMTEEKFEKVINANLTGAFRVAQRASRSMQRNKFGRMIFIGSVSGSWGIGNQANYAASKAGVIGMARSIARELSKANVTANVVAPGYIDTDMTRALDERIQQGALQFIPAKRVGTPAEVAGVVSFLASEDASYISGAVIPVDGGMGMGH
**Q.** For B1, which Vi is on record?
**A.** 0.60 ± 0.01 µmol/min/mg

Source: US20100113291A1 (CENTRE NATIONAL DE LA RECHERCHE SCIENTIFIQUE, priority 2006, published 2010)
